This experiment deals with human TrkA transmembrane domain peptide (TrkA-TM-wt) (human). Briefly: NMR structure.

For the substance “human TrkA transmembrane domain peptide (TrkA-TM-wt) (domain or fragment)”, the stoichiometry N was 2.

The stoichiometry N is a count of units in the complex or per binding partner.

For the origin of these results see article doi:10.1101/721233.
